Laboratory results from patent US20200010523A1 (INSTITUTE FOR CANCER RESEARCH, published 2020).

Biological target: T1, human Müllerian-inhibiting substance type II receptor (MISIIR) (human, UniProt Q16671 18-573)
T1 sequence (looked up): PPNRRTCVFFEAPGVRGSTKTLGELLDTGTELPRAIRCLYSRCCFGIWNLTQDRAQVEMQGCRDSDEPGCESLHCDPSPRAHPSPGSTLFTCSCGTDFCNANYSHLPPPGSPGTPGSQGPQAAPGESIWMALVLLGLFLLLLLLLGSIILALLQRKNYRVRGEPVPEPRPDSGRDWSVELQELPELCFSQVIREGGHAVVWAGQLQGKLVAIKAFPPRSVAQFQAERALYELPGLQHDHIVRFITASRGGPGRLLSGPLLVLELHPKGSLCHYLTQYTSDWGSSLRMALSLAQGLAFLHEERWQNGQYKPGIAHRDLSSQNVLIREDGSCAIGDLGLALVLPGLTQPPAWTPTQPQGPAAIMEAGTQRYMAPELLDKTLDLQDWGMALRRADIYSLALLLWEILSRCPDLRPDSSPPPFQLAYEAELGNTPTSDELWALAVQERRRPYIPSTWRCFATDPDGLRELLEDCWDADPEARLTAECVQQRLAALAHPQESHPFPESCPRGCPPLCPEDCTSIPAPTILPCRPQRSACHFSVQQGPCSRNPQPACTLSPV
Assay: cell-based or functional assay

expression of a luciferase reporter gene over background levels, 10 nM, 3-day assay, P19 reporter cell line: ~10 fold
B1: Müllerian-inhibiting substance (MIS) (ligand)
chain: SAGATAADGPCALRELSVDLRAERSVLIPETYQANNCQGVCGWPQSDRNPRYGNHVVLLLKMQVRGAALARPPCCVPTAYAGKLLISLSEERISAHHVPNMVATECGCR
